Paper doi:10.1101/2020.07.09.174003 (bioRxiv, 2020)
Blank lines part the entries; values can stand above or below the molecule they belong to.

What was measured:
[1] = molecular target: Deinococcus radiodurans phytochrome (DrBphP) photosensory module, biliverdin-bound, with C-terminal AviTag and HisTag (Deinococcus radiodurans); assay: SEC
[2] = molecular target: Rhodopseudomonas palustris BphP1 (RpBphP1), mammalian two-hybrid fusion (Rhodopseudomonas palustris); assay: two-hybrid
[3] = molecular target: DrBphP photosensory module, biliverdin-bound, yeast two-hybrid bait (Deinococcus radiodurans (entry strain …, UniProt Q9RZA4, biliverdin-bound)); assay: two-hybrid
DrBphP photosensory module, biliverdin-bound, yeast two-hybrid bait (Deinococcus radiodurans, sequence (Q9RZA4 whole entry, looked up, tested part not stated): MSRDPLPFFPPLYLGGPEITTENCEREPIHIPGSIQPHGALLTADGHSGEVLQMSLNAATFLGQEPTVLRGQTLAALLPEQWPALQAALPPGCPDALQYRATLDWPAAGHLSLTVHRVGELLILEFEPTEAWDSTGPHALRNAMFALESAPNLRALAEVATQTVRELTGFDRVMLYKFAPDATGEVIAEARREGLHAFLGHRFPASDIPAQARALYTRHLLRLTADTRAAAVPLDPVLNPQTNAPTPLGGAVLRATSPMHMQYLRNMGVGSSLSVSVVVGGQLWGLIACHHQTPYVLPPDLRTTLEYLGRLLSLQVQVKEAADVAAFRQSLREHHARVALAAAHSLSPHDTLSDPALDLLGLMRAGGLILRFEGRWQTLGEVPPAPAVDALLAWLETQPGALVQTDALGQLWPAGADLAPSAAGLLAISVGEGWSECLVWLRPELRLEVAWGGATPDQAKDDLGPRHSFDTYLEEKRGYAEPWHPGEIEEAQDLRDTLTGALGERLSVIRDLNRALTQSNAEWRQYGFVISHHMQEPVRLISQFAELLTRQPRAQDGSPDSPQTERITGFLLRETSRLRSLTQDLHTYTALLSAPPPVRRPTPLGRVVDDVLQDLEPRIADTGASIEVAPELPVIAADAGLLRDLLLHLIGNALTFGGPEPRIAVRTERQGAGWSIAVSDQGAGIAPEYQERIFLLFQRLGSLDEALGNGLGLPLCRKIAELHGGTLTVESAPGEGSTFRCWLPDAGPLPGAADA

Molecule: Deinococcus radiodurans phytochrome (DrBphP) photosensory module, biliverdin-bound, with C-terminal AviTag and HisTag (domain or fragment)
stoichiometry N [1]: 2

Molecule: PpsR2, mammalian two-hybrid fusion (natural protein)
fold increase of luciferase expression, 775-nm light over dark [2]: 2.95 fold

Molecule: Q-PAS1, a truncated form of PpsR2, mammalian two-hybrid fusion (domain or fragment)
fold increase of luciferase expression, 775-nm light over dark [2]: 2.02 fold

binding result [3]: binds
B1: LDB-7 nanobody, yeast two-hybrid prey (VHH)
VHH: EVQLQASGGGFVQPGGSLRLSCAASGSTSDFESMGWFRQAPGKEREFVSAISSWFTNPPYYADSVKGRFTISRDNSKNTVYLQMNSLRAEDTATYYCAHRSIWYHPTYWGQGTQVTVSS

binding result [3]: binds
B2: LDB-4 nanobody, yeast two-hybrid prey (VHH)
VHH: EVQLQASGGGFVQPGGSLRLSCAASGDTSYLYSMGWFRQAPGKEREFVSAISWWWNLTQYYADSVKGRFTISRDNSKNTVYLQMNSLRAEDTATYYCAWSIYFPPGNDYNGYHYWGQGTQVTVSS

binding result [3]: binds
B3: LDB-6 nanobody, yeast two-hybrid prey (VHH)
VHH: EVQLQASGGGFVQPGGSLRLSCAASGFFSNWSDMGWFRQAPGKEREFVSAISFWADGTEYYADSVKGRFTISRDNSKNTVYLQMNSLRAEDTATYYCAWYGPVNGFYMFDYWGQGTQVTVSS
